B1: IkB-like protein (African swine fever virus (isolate Tick/Malawi/Lil 20-1/1983)), O36972 (parent)
chain: MDTIGLFSVEAEHLFVEWVKKCIKKGDLTLFETLFNADPWIVNRCNKNKITVFMLICIYGRLDFLRFLFKQESYPGEIVNHYRRDKDGNSAWHYLAEKNNHLLLEEVLDYFGKNGIRVCFPNFNGVTPIMKAAMRGRTLSVLSLLKYGANPNRKDYLKGFTTWDWAVFTGHADLVKTLNKGYQKPLFMHFPLYKLDVFHRRFKKKPKIIITGCEDNVYEKLPEQNSNFLCVKKLNKYGK

Variants of: B1
Conditions: with PPP3CA
F228A;L229A;V231A;K232A was tested, and the “effect of a mutation on the interaction” value was “disrupting interaction strength”.
